This is an account of results in patent US20260216362A1, “ANTI-BDCA2 ANTIBODY-DRUG CONJUGATE AND USE THEREOF” (DUALITY BIOLOGICS (SHANGHAI) CO., LTD., priority 2022, published 2026).

Experiment [1] concerns the target cynomolgus monkey BDCA2 expressed on 293F cells (cynomolgus monkey). In words: FACS on 293F-cynoBDCA2 cells, MFI vs concentration; EC50 from the drawn table (fit of a flat control curve).
Experiment [2] concerns the target T1, human BDCA2 expressed on CHOK1 cells (human, UniProt Q8WTT0 1-213).
T1 construct: whole, on cells; also called CHOK1-hBDCA2; CHOK1-humanBDCA2
T1 sequence (looked up): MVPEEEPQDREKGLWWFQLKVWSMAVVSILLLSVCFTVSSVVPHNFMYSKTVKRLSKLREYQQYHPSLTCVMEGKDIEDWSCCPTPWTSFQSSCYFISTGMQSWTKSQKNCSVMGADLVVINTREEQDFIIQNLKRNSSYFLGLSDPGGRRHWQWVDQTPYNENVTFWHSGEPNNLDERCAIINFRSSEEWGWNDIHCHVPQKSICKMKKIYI
In words: FACS on CHOK1-hBDCA2 cells, MFI vs concentration; EC50 from the drawn table (fit of a flat control curve).

Experiment [3] has as its target T2, Human BDCA2 Fc recombinant protein (human, UniProt Q8WTT0 45-213).
T2 construct: also called HumanBDCA2 Fc protein; not shown: The N-terminal human IgG1 Fc fragment and the linker
T2 sequence: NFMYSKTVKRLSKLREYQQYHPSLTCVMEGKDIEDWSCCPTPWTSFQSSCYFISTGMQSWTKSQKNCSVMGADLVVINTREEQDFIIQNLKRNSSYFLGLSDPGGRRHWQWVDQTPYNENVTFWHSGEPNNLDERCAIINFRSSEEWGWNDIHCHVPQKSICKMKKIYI
In words: ELISA, coated humanBDCA2 Fc.

The target of experiment [4] is T1, human BDCA2 expressed on CHOK1 cells. In words: FACS on CHOK1-hBDCA2 cells. Here is the method:
(§1) The cells were collected and resuspended to 2×10\hat{ }6 cells/mL in an FACS buffer (PBS+2% FBS). The resuspended cells were added to a 3799 cell plate at 100 μL/well and centrifuged at 300 g, and the supernatant was discarded. […] The cells were resuspended and incubated at 4° C. for 1 h. The incubated cells were centrifuged at 300 g for 5 min and washed twice with the FACS buffer. 100 μL of Goat anti-Human IgG (H+L) Cross-Adsorbed Secondary Antibody, Alexa Fluor 488 (Sigma, A11013; 1:1000) secondary antibody was added. The cells were incubated at 4° C. for 1 h, washed twice with the FACS buffer, and resuspended in PBS. The fluorescence signals of the antibodies for binding to the cell surface were analyzed using an FACS (BD FACS Canto™ II) instrument, curves were fitted using GraphPad Prism6, and EC50 values of the antibodies or antibody-drug conjugates for binding to the BDCA2 antigen were calculated.

For experiment [5], the target named is T3, cynomolgus monkey BDCA2 expressed on 293F cells (cynomolgus monkey, UniProt A0A2K5UWP4 1-212).
T3 construct: whole, on cells
T3 sequence: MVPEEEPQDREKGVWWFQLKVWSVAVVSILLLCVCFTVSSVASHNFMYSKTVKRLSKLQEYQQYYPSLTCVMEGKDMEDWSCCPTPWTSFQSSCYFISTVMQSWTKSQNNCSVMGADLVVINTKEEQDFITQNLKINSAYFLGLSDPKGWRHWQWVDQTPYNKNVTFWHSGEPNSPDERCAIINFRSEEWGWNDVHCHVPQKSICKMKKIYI
In words: FACS on 293F-cynoBDCA2 cells. The procedure: as §1

Take hIgG1 (antibody): the figures for the EC50 in experiment [1] and in experiment [2] were 584 nM and 160000 nM, respectively.

B1: mAb020 (antibody)
chain 1: DVQLQESGPGLVKPSQSLSLTCSVTGYSIASGYYWNWIRQFPGNKLEWMGYISFDGTYNYNPSLKDRFSITRDTSKNQFFLKLNSVTTEDTATYYCARGVDYPNAIDWWGQGTSVTVSS
chain 2: DIVLTQSPASLAVSLGQRATISCRASESVSMHVTHLIHWYQQKPGQPPKLLIYVASNLESGVPARFSGSGSETDFTLNIHPVEEEDAATYFCQQSFEDPWTFGGGTKLEIK
Take B1: in experiment [3], the EC50 is less than 0.3 nM.

B2: mAb022 (antibody)
chain 1: DVQLQESGPGLVKPSQSLSLTCSVTGYSITSGYYWNWIRQFPGNKLEWMGYISFDGTYNYNPSLKDRFSITRDTSKNQFFLKLNSVTTEDTATYYCARGVDYPKAMDWWGQGTSVTVSS
chain 2: DIVLTQSPASLAVSLGQRATISCRASESVSMHVTHLIHWYQQKPGQPPKLLIYVASNLESGVPARFSGSGSETDFTLNIHPVEEEDAATYFCQQSFEDPWTFGGGTKLEIK
With B2, the EC50 in experiment [3] is less than 0.3 nM.

B3: mAb024 (antibody)
chain 1: EVQLVESGGDLVKPGGSLKLSCAASGFTFSSFGMSWVRQTPDKRLDWVATISSGDSYTYYPDSVKGRFSISRDNAKNTLYLQMSSLKSEDTAVYYCARQIYYDYAYYFDYWGQGTTLTVSS
chain 2: DIVLTQSPASLAVSLGQRATISCRASESVSFRSSHLMHWYRQKPGQPPKLLIYAASNLESGVPARFSGSGSETDFTLNIHPVEEEDAAAYFCQQSIEDPPTFGGGTKLEIK
Take B3: the EC50 in experiment [3] is less than 0.3 nM.

B4: mAb001 (antibody)
chain 1: QIQLVQSGPELKKPGETVKISCKASGYTFTDFSMHWVKQAPGKGLKWMGWINTETGEPTYADDFKGRFAFSLETSASTAFLQINNLKNDDTTTYFCSRGGDGHPYWYFAVWGAGTTVTVSS
chain 2: DIVLTQSPASLAVSLGQRATISCRASQSVSTSSYSYMHWYQQKPGQPPKLLIKYASILESGVPARFSGSGSGTDFTLNIHPVEEEDTATYYCQHSWEIPFTFGSGTKLEIK
As to B4, in experiment [3], the EC50 was less than 0.3 nM.

B5: mAb002 (antibody)
chain 1: QIQLVQSGPELKKPGETVKISCRASGYSFTDYSMHWVKQAPGKGLKWVGWINTETGEPTYADDFKGRFALSLETSATSAYLQINNLKNEDTATYFCARGGDGFPYWYFNVWGAGTTVTVSS
chain 2: DIVLTQSPTSLAVSLGQRTNISCRASQSVSTSSNSYIHWYQQKPGQPPKLLIKYASNLDSGVPARFSGSGSGTDFTLNIHPVEEEDTSTYYCQHSWEIPFTFGSGTKLEIK
As to B5, the half-maximal effective concentration (EC50) in experiment [3] is less than 0.3 nM.

B6: BIIB059 (antibody, human IgG1, kappa, V domains shown)
VH: DVQLVESGGGLVKPGGSLRLSCAASGFTFSTYTMSWVRQAPGKGLEWVATISPGDSFGYYYPDSVQGRFTISRDNAKNSLYLQMNSLRAEDTAVYYCTRDIYYNYGAWFAYWGQGTLVTVSS
VL: DIQLTQSPSSLSASVGDRVTITCKASQSVDYDGDSYMNWYQQKPGKAPKLLIYAASTLESGVPSRFSGSGSGTDFTLTISSLQPEDFATYYCQQANEDPRTFGQGTKVEIKR
notes: also called positive control antibody BIIB059
Turning to B6, in experiment [4], the EC50 turned out to be 3.29 nM.

B7: Hu033-03 (antibody, human IgG1, kappa, V domains shown)
VH: EVQLVESGGGLVKPGGSLRLSCAASGFTFSSYGMSWVRQAPGKGLEWVSTISSGDSYTYYPDSVKGRFTISRDNAKNSLYLQMNSLRAEDTAVYYCARQIYYDYAYYFDFWGQGTTVTVSS
VL: DIVLTQSPASLAVSPGQRATITCRASESVSFRTSHLMHWYQQKPGQPPKLLIYGASNLESGVPARFSGSGSETDFTLTINPVEAEDTANYFCQQSIEDPPTFGGGTKVEIKR
notes: Humanized IgG1; also called Hu033-03(BM3)
As to B7, the EC50 amounted to 1.23 nM in experiment [4] and 1.91 nM in experiment [5].

B8: Hu033-03-ADC (antibody, human IgG1, kappa, V domains shown)
VH: EVQLVESGGGLVKPGGSLRLSCAASGFTFSSYGMSWVRQAPGKGLEWVSTISSGDSYTYYPDSVKGRFTISRDNAKNSLYLQMNSLRAEDTAVYYCARQIYYDYAYYFDFWGQGTTVTVSS
VL: DIVLTQSPASLAVSPGQRATITCRASESVSFRTSHLMHWYQQKPGQPPKLLIYGASNLESGVPARFSGSGSETDFTLTINPVEAEDTANYFCQQSIEDPPTFGGGTKVEIKR
modifications: Compound 9 (glucocorticoid linker-payload) coupled to cysteine sulfhydryls after TCEP reduction, positions not given; average 4.01 per antibody by HIC
notes: also called Hu033-03 antibody-drug conjugate; BDCA2-ADC
Take B8: the EC50 in experiment [4] came out at 1.6 nM; in experiment [5], 2.36 nM.

B9: mAb019 (antibody)
chain 1: EVKLVESGGDLVQPGGSLKLSCAASGFTFSDYYMYWVRQTPEKRLEWVAYISYSGDSTYYPDTVKGRFTISRDNAKNTLFLQMSRLKSEDTAMYYCARHSPSFPYYFDYWGQGTALTVSS
chain 2: EIVLTQSPAITAASLGQKVTITCSASSSVSYMHWYQQKSGTSPKPWIYEISKLASGVPARFSGSGSGTSYSLTISSMEAEDAAIYYCQLWNYPLITFGGGTNLEIK
Turning to B9, the EC50 in experiment [3] was less than 0.3 nM.

B10: mAb005 (antibody)
chain 1: QVQLKQSGPGLVQPSQSLSITCTVSGFSLTNYGVHWVRQSPGKGLEWLGVIWSGESTDYDAAFISRLSISKDNSKSQVFFKMNSLQADDSAIYYCARRRSHYYGYVMDYWGQGTSVTVSS
chain 2: DIVLTQSPASLAVSLGQRATISCKASQSIDYDGIGYLNWYQHKPGQPPKLLIYAASNLESGIPARFSGSGSGTDFTLNIHPVEEEDAATYYCQQSNEDPPTFGSGTKLEIK
B10: the EC50 in experiment [3] is less than 0.3 nM.

B11: mAb016 (antibody)
chain 1: QVQLKQSGPGLVQPSQSLSITCTVSGFSLTSYGVHWVRQSPGKGLEWLGVIWSGESTDYDAAFISRLSISKDNSKSQVFFRMNSLQADDSAIYYCARRRSHYYGYVMDYWGQGTSVTVSS
chain 2: DIVLTQSPASLAVSLGQRATISCKASQSVDYDGVGYLNWYQHKPGQPPKLLIYAASNLESGIPARFSGSGSGTDFTLNIHPVEEEDAATYYCQQSNEDPPTFGSGTKLEIK
B11: in experiment [3], the EC50 was less than 0.3 nM.

B12: mAb021 (antibody)
chain 1: DVQLQESGPGLVKPSQSLSLTCSVTGYSITSAYYWNWIRQFPGNKLECMGYITYDGNNYYSPSLKNRISITRDTSKNQFFLNLNSVTTEDTATYFCARGGDYDDGGFAFWGQGTLVTVSA
chain 2: DIQMTQSPASLSASVGETVTITCRASGNIHNYLAWYHQKQGKSPQLLVYNAKSLVDGVPSRFSGSGSGTQYSLRINSLQPEDFGSYYCQHFWIVPYTFGGGTKLEII
As to B12, the EC50 in experiment [3] is less than 0.3 nM.

B13: mAb030 (antibody)
chain 1: DVQLQESGPGLVKPSQSLSLTCSVTGYSITSAYYWNWIRQFPGNKLECMGYISYDGSNYYNPSLKNRISITRDTSKNQFFLSLNSVTTEDTATYFCVRGGDYDDGGFAYWGQGTLVTVSA
chain 2: DIQMTQSPASLSASVGETVTITCRASGNIHNYLAWYQQKQGKSPQLLVYNAKTLADGVPSRFSGSGSETQYSLKINSLQPEDFGNYFCQHFWIIPYTFGGGTKLEIK
As to B13, the EC50 in experiment [3] is less than 0.3 nM.

B14: mAb027 (antibody)
chain 1: DVQLQESGPGLVKPSQSLSLTCSVTGYSITSAYYWNWVRQFPGNQLECMGYITYDGSNNYNPSLKNRISITRDTSKNQFFLKLNSVTTEDTATYYCVRGGDYDDGGFAYWGQGTLVTVSA
chain 2: DIQMTQSPASLSASVGETVTITCRASGNIHNYLAWYQQKQGKSPQLLVYNAKTLVDGVPSRFSGSGSGTEYSLKINSLQPEDFGIYFCQHFWIIPYTFGGGTKLEIR
Regarding B14, the EC50 in experiment [3] is less than 0.3 nM.
